Reference: patent publication US20090280543A1, “REGIOSELECTIVE GLYCOSYLATION” (THE UNIVERSITY OF YORK, priority 2005, published 2009)

B1: GT 71 D1: Arabidopsis thaliana glycosyltransferase, SEQ ID NO: 12 (nucleotide), 111 (amino acid) (protein, listed as Arabidopsis thaliana)
chain: MRNVELIFIPTPTVGHLVPFLEFARRLIEQDDRIRITILLMKLQGQSHLDTYVKSIASSQPFVRFIDVPELEEKPTLGSTQSVEAYVYDVIERNIPLVRNIVMDILTSLALDGVKVKGLVVDFFCLPMIDVAKDISLPFYVFLTTNSGFLAMMQYLADRHSRDTSVFVRNSEEMLSIPGFVNPVPANVLPSALFVEDGYDAYVKLAILFTKANGILVNSSFDIEPYSVNHFLQEQNYPSVYAVGPIFDLKAQPHPEQDLTRRDELMKWLDDQPEASVVFLCFGSMARLRGSLVKEIAHGLELCQYRFLWSLRKEEVTKDDLPEGFLDRVDGRGMICGWSPQVEILAHKAVGGFVSHCGWNSIVESLWFGVPIVTWPMYAEQQLNAFLMVKELKLAVELKLDYRVHSDEIVNANEIETAIRYVMDTDNNVVRKRVMDISQMIQRATKNGGSSFAAIEKFIYDVIGIKP
B2: GT 88A1: Arabidopsis thaliana glycosyltransferase, SEQ ID NO: 97 (nucleotide), 133 (amino acid) (protein, listed as Arabidopsis thaliana)
chain: MGEEAIVLYPAPPIGHLVSMVELGKTILSKNPSLSIHIILVPPPYQPESTATYISSVSSSFPSITFHHLPAVTPYSSSSTSRHHHESLLLEILCFSNPSVHRTLFSLSRNFNVRAMIIDFFCTAVLDITADFTFPVYFFYTSGAACLAFSFYLPTIDETTPGKNLKDIPTVHIPGVPPMKGSDMPKAVLERDDEVYDVFIMFGKQLSKSSGIIINTFDALENRAIKAITEELCFRNIYPIGPLIVNGRIEDRNDNKAVSCLNWLDSQPEKSVVFLCFGSLGLFSKEQVIEIAVGLEKSGQRFLWVVRNPPELEKTELDLKSLLPEGFLSRTEDKGMVVKSWAPQVPVLNHKAVGGFVTHCGWNSILEAVCAGVPMVAWPLYAEQRFNRVMIVDEIKIAISMNESETGFVSSTEVEKRVQEIIGECPVRERTMAMKNAAELALTETGSSHTALTTLLQSWSPK
B3: GT 71C2: Arabidopsis thaliana glycosyltransferase, SEQ ID NO: 8 (nucleotide), 109 (amino acid) (protein, listed as Arabidopsis thaliana)
chain: MAKQQEAELIFIPFPIPGHILATIELAKRLISHQPSRIHTITILHWSLPFLPQSDTIAFLKSLIETESRIRLITLPDVQNPPPMELFVKASESYILEYVKKMVPLVRNALSTLLSSRDESDSVHVAGLVLDFFCVPLIDVGNEFNLPSYIFLTCSASFLGMMKYLLERNRETKPELNRSSDEETISVPGFVNSVPVKVLPPGLFTTESYEAWVEMAERFPEAKGILVNSFESLERNAFDYFDRRPDNYPPVYPIGPILCSNDRPNLDLSERDRILKWLDDQPESSVVFLCFGSLKSLAASQIKEIAQALELVGIRFLWSIRTDPKEYASPNEILPDGFMNRVMGLGLVCGWAPQVEILAHKAIGGFVSHCGWNSILESLRFGVPIATWPMYAEQQLNAFTIVKELGLALEMRLDYVSEYGEIVKADEIAGAVRSLMDGEDVPRRKLKEIAEAGKEAVMDGGSSFVAVKRFIDGL
B4: GT 74B1: Arabidopsis thaliana glycosyltransferase, SEQ ID NO: 35 (nucleotide), 124 (amino acid) (protein, listed as Arabidopsis thaliana)
chain: MAETTPKVKGHVVILPYPVQGHLNPMVQFAKRLVSKNVKVTIATTTYTASSITTPSLSVEPISDGFDFIPIGIPGFSVDTYSESFKLNGSETLTLLIEKFKSTDSPIDCLIYDSFLPWGLEVARSMELSAASFFTNNLTVCSVLRKFSNGDFPLPADPNSAPFRIRGLPSLSYDELPSFVGRHWLTHPEHGRVLLNQFPNHENADWLFVNGFEGLEETQDCENGESDAMKATLIGPMIPSAYLDDRMEDDKDYGASLLKPISKECMEWLETKQAQSVAFVSFGSFGILFEKQLAEVAIALQESDLNFLWVIKEAHIAKLPEGFVESTKDRALLVSWCNQLEVLAHESIGCFLTHCGWNSTLEGLSLGVPMVGVPQWSDQMNDAKFVEEVWKVGYRAKEEAGEVIVKSEELVRCLKGVMEGESSVKIRESSKKWKDLAVKAMSEGGSSDRSINEFIESLGK

Experiment: Whole-cell biocatalysis screen of GT library against the aglycone trans-resveratrol (RP-HPLC of glucosides)
Type: cell-based, E. coli
Conditions: 500 µM aglycone, 44 h, 25° C.
Excerpt: FIG. 4: Screening of a GT-library against the aglycone trans-resveratrol. a) The readings at A405 nm for D-glucose detection are presented in a colored code format. b) Examples of RP HPLC trace of active and non active GTs in whole cell biocatalysis are illustrated. c) The regioselectivity of the active GTs towards trans-resveratrol, defined by the percentage of a regiospecific glucoside in the total amount of monoglucosides formed;
Reverse-phase HPLC (RP-HPLC): RP-HPLC (Agilent 1100 system with Photodiode Array Detector, Agilent, U.K.) analysis was carried out using a Columbus 5-μ C18 column (150×3.20 mm, Phenomenex, U.K.). Glucosides were separated from their respective aglycones using a linear gradient of acetonitrile/0.1% formic acid (v/v) in H2O: 10-45% (trans-resveratrol/glucosides), 10-50% (daidzein/glucosides) at 0.5 mL/min over 20 min and monitored at 280 nm and 250 nm. Separation of scopoletin/scopolin and esculetin/esculin was carried out using the conditions described previously.^[11]
The cDNA library of 96 Arabidopsis thaliana GTs was subcloned into the multiple cloning site of the glutathione-S-transferase (GST) gene fusion vector pGEX-2T (Amersham Biosciences, U.K.) as described previously^[10] and transformed into the strain E. coli BL21 (DE3) for use in the screening method.
Stage 1, biotransformation: single colonies of the GT library grown on LB-agar plates overnight were transferred to individual wells in a 96-well bacterial culture plate containing 400 μl 2×YT medium (16 g/L bacto tryptone, 10 g/L yeast extract, 5 g/L NaCl) and 50 μg/mL ampicillin. The plate was covered with an adhesive plate seal (Abgene, U.K.) and incubated at 37° C. (250 rpm). The bacterial growth was monitored at 595 nm by a plate reader. After 4 h, the cultures had reached exponential phase. The plate was centrifuged (4000 g, 10 min), the supernatants discarded and cell pellets were resuspended in isopropyl-D-thiogalactopyranoside (0.1 mM), 2-(N-morpholino)ethanesulfonic acid (50 mM, pH 7.0), ampicillin (50 μg/mL), L-arabinose (10 g/L) and 500 µM of aglycone to a total whole-cell reaction volume of 400 μl/well. The 96-well plate was closed with a gas permeable adhesive plate seal, wrapped in alu foil for light protection and incubated at 25° C. (250 rpm). After 44 h the cultures were centrifuged (4000 g, 15 min) and the supernatants analyzed.
Stage 2, cleavage: supernatants (100 μl) were transferred to a microtiter plate, 1 μl of β-glucosidase (1 U) was added and the plate incubated for 90 min at 37° C.
Stage 3, detection: 50 μl of the reaction mix were transferred to a 96-well filtration plate (Abgene, U.K.), mixed with an equal volume of PVPP aqueous suspension (25 g/L), shaken for 1 h at 25° C. before centrifugation (1000 g, 5 min). To each filtrate, 50 mM 2-morpholino-ethanesulfonic acid buffer (MES) (pH 7.0), ABTS™ (0.1 mM), peroxidase (2 U) and glucose oxidase (2 U) were added to a final volume of 125 μl. The formation of the green dye was monitored at 405 nm at 30 min using a plate reader (Bio-Tec Instruments Inc., U.S.A).
The utility of the screening method and regioselective biocatalysis by the GTs are illustrated in FIGS. 2 and 3. Thirteen GTs recognized daidzein and twenty-five GTs were identified that glycosylated trans-resveratrol. […] The mono- and di-glucosides of daidzein (4-6) and trans-resveratrol (8-10), eluting earlier than the two aglycones under the RP-HPLC conditions used (FIGS. 2b and 3b), were identified using external standards when available, or by electrospray liquid chromatography-mass spectrometry (LC-MS). ^1H-NMR analysis was used to confirm the structure of the monoglucosides (Table 1, SEQ ID NO: 1-107). […] Similarly, regioselective glycosylation of trans-resveratrol was observed. […] Only trace levels of a diglucoside were observed under the reaction conditions used.
For B1, the “regioselective glycosylation of trans-resveratrol (position)” value (“regioselective glycosylation” below) was “specific for the 3-OH position”.
For B2, the “regioselective glycosylation” value was “specific for the 3-OH position”.
With B3 the “regioselective glycosylation” value was “specific for the 3-OH position”.
With B4 the “regioselective glycosylation” value was “specific for the 4′-OH position”.
